Measured values from the supplement of paper PMC12338614.
± gives the uncertainty stated by the source.

B1: library; numbered along this chain (parent)
chain: MEVVDPQQLGMFTEGELMSVGMDTFIHRIDSTEVIYQPRRKRAKLIGKYLMGDLLGEGSYGKVKEVLDSETLCRRAVKILKKKKLRRIPNGEANVKKEIQLLRRLRHKNVIQLVDVLYNEEKQKMYMVMEYCVCGMQEMLDSVPEKRFPVCQAHGYFCQLIDGLEYLHSQGIVHKDIKPGNLLLTTGGTLKISDLGVAEALHPFAADDTCRTSQGSPAFQPPEIANGLDTFSGFKVDIWSAGVTLYNITTGLYPFEGDNIYKLFENIGKGSYAIPGDCGPPLSDLLKGMLEYEPAKRFSIRQIRQHSWFRKKHPPAEAPVPIPPSPDTKDRWRSMTVVPYLEDLHGADEDEDLFDIEDDIIYTQDFTVPGQVPEEEASHNGQRRGLPKAVCMNGTEAAQLSTKSRAEGRAPNPARKACSASSKIRRLSACKQQ

Variants of: B1
Test: STK11 functional score (HeLa growth suppression), rescaled enrichment; synonymous median = 1, nonsense median = 0 (normalised score)
Details: with HeLa; variant type: missense
How it was run: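 The values are functional scores: wild-type-corrected log ratios of post- versus pre-selection abundance, rescaled to synonymous and nonsense medians, merged over codons and replicate transfections, and carrying bootstrapped error. They derive from codon-randomised (POPCode), codon-optimised STK11 libraries that Bxb1 integrated at an AAVS1 landing pad in HeLa, with three transfections for each of three regions. Sequencing of tiled gDNA amplicons ran on NextSeq, at ~2 million reads per tile.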

Row | Variant | STK11 functional score
1 | MEVVDPQQLGMFTEGELMSVGMDTFIHRIDSTEVIYQPRRKRAKLIGKYLMGDLLGEGSYGKVKEVLDSETLCRRAVKILKKKKLRRIPNGEANVKKEIQLLRRLRHKNVIQLVDVLYNEEKQKMYMVMEYCVCGMQEMLDSVPEKRFPVCQAHGYFCQLIDGLEYLHSQGIVHKDIKPGNLLLTTGGTLKISDLGVAEALHPFAADDTCRTSQGSPAFQPPEIANGLDTFSGFKVDIWSAGVTLYNITTGLYPFEGDNIYKLFENIGKGSYAIPGDCGPPLSDLLKGMLEYEPAKRFSIRQIRQHSWFRKKHPPAEAPVPIPPSPDTKDRWRSMTVVPYLEDLHGADEDEDLFDIEDDIIYTQDFTVPGQVPEEEASHNGQRRGLPKAVCMNGTEAAQLSTKSRAEGRAPNPARKACSASSKIRDLSACKQQ [R426D] | 1.42 ± 0.27
2 | MEVVDPQQLGMFTEGELMSVGMDTFIHRIDSTEVIYQPRRKRAKLIGKYLMGDLLGEGSYGKVKEVLDSETLCRRAVKILKKKKLRRIPNGEANVKKEIQLLRRLRHKNVIQLVDVLYNEEKQKMYMVMEYCVCGMQEMLDSVPEKRFPVCQAHGYFCQLIDGLEYLHSQGIVHKDIKPGNLLLTTGGTLKISDLGVAEALHPFAADDTCRTSQGSPAFQPPEIANGLDTFSGFKVDIWSAGVTLYNITTGLYPFVGDNIYKLFENIGKGSYAIPGDCGPPLSDLLKGMLEYEPAKRFSIRQIRQHSWFRKKHPPAEAPVPIPPSPDTKDRWRSMTVVPYLEDLHGADEDEDLFDIEDDIIYTQDFTVPGQVPEEEASHNGQRRGLPKAVCMNGTEAAQLSTKSRAEGRAPNPARKACSASSKIRRLSACKQQ [E256V] | 0.873 ± 0.33
3 | MEVVDPQQLGMFTEGELMSVGMDTFIHRIDSTEVIYQPRRKRAKLIGKYLMGDLLGEGSYGKVKEVLDSETLCRRAVKILKKKKLRRIPNGEANVKKEIQLLRRLRHKNVIQIVDVLYNEEKQKMYMVMEYCVCGMQEMLDSVPEKRFPVCQAHGYFCQLIDGLEYLHSQGIVHKDIKPGNLLLTTGGTLKISDLGVAEALHPFAADDTCRTSQGSPAFQPPEIANGLDTFSGFKVDIWSAGVTLYNITTGLYPFEGDNIYKLFENIGKGSYAIPGDCGPPLSDLLKGMLEYEPAKRFSIRQIRQHSWFRKKHPPAEAPVPIPPSPDTKDRWRSMTVVPYLEDLHGADEDEDLFDIEDDIIYTQDFTVPGQVPEEEASHNGQRRGLPKAVCMNGTEAAQLSTKSRAEGRAPNPARKACSASSKIRRLSACKQQ [L113I] | 0.313 ± 0.082
4 | MEVVDPQQLGMFTEGELMSVGMDTFIHRIDSTEVIYQPRRKRAKLIGKYLMGDLLGEGSYGKVKEVLDSETLCRRAVKILKKKKLRRIPNGEANVKKEIQLLRRLRHKNVIQLVDVLYNEEKQKMYMVMEYCVCGMQEMLDSVPEKRFPVCQAHGYFCQLIDGLEYLHSQGIVHKDIKPGNLLLTTGGTLKISDLGVAEALHPFAADDTCRTSQGSPAFQPPEIANGLDTFSGFKVDIWSAGVTLYNITTGLYPFEGDNIYKLFENIGKGSYAIPGDCGPPLSDLLKGMLEYEPAKRFSIRQIRQHSWFRKKHPPAEAPVPIPPSPDTKDRWRSMTVVPYLEDLHGADEDEDLFDIEDDIIYTQDFTVPGQVPEEEASHNGQRRGLPKAVCMNGTEAAQLSTKSRAEGRAPNPARKACSASSKFRRLSACKQQ [I424F] | 1.04 ± 0.086
5 | MEVVDPQQLGMFTEGELMSVGMDTFIHRIDSTEVIYQPRRKRAKLIGKYLMGDLLGEGSYGKVKEVLDSETLCRRAVKILKKKKLRRIPNGEANVKKEIQLLRRLRHKNVIQLVDVLYNEEKQKMYMVMEYCVCGMQEMLDSVPEKRFPVCQAHGYFCQLIDGLEYLHSQGIVHKDIKPGNLLLTTGGTLKISDLGVAEALHPFAALDTCRTSQGSPAFQPPEIANGLDTFSGFKVDIWSAGVTLYNITTGLYPFEGDNIYKLFENIGKGSYAIPGDCGPPLSDLLKGMLEYEPAKRFSIRQIRQHSWFRKKHPPAEAPVPIPPSPDTKDRWRSMTVVPYLEDLHGADEDEDLFDIEDDIIYTQDFTVPGQVPEEEASHNGQRRGLPKAVCMNGTEAAQLSTKSRAEGRAPNPARKACSASSKIRRLSACKQQ [D207L] | 0.856 ± 0.12
6 | MEVVDPQQLGMFTEGELMSVGMDTFIHRIDSTEVIYQPRRKRAKLIGKYLMGDLLGEGSYGKVKEVLDSETLCRRAVKILKKKKLRRIPNGEANVKKEIQLLRRLRHKNVIQLVDVLYNEEKQKMYMVMEYCVCGMQEMLDSVPEKRFPVCQAHGYFCQLIDGLEYLHSQGIVHKDIKPGNLLLTTGGTLKISDLGVAEALHPFAAMDTCRTSQGSPAFQPPEIANGLDTFSGFKVDIWSAGVTLYNITTGLYPFEGDNIYKLFENIGKGSYAIPGDCGPPLSDLLKGMLEYEPAKRFSIRQIRQHSWFRKKHPPAEAPVPIPPSPDTKDRWRSMTVVPYLEDLHGADEDEDLFDIEDDIIYTQDFTVPGQVPEEEASHNGQRRGLPKAVCMNGTEAAQLSTKSRAEGRAPNPARKACSASSKIRRLSACKQQ [D207M] | 1.17 ± 0.12
7 | MEVVDPQQLGMFTEGELMSVGMDTFIHRIDSTEVIYQPRRKRAKLIGKYLMGDLLGEGSYGKVKEVLDSETLCRRAVKILKKKKLRRIPNGEANVKKEIQLLRRLRHKNVIQLVDVLYNEEKQKMYMVMEYCVCGMQEMLDSVPEKRFPVCQAHGYFCQLIDGLEYLHSQGIVHKDIKPGNLLLTTGGTLKISDLGVAEALHPFAADDTCRTSQGSPAFQPPEIANGLDTFSGFKVDIWSAGVTLYNITTGLYPFEGDNIYKLFENIGKGSYAIPGDCGPPLSDLLKGMLEYEPAKRFSIRQIRQHSWFRKKHPPAEAPVPIPPSPDTKDRWRSMTVVPYLEDLHGADEDEDLFDIEDDWIYTQDFTVPGQVPEEEASHNGQRRGLPKAVCMNGTEAAQLSTKSRAEGRAPNPARKACSASSKIRRLSACKQQ [I360W] | 0.807 ± 0.13
8 | MEVVDPQQLGMFTEGELMSVGMDTFIHRIDSTEVIYQPRRKRAKLIGKYLMGDLLGEGSYGKVKEVLDSETLCRRAVKILKKKKLRRIPNGEANVKKEIQLLRRMRHKNVIQLVDVLYNEEKQKMYMVMEYCVCGMQEMLDSVPEKRFPVCQAHGYFCQLIDGLEYLHSQGIVHKDIKPGNLLLTTGGTLKISDLGVAEALHPFAADDTCRTSQGSPAFQPPEIANGLDTFSGFKVDIWSAGVTLYNITTGLYPFEGDNIYKLFENIGKGSYAIPGDCGPPLSDLLKGMLEYEPAKRFSIRQIRQHSWFRKKHPPAEAPVPIPPSPDTKDRWRSMTVVPYLEDLHGADEDEDLFDIEDDIIYTQDFTVPGQVPEEEASHNGQRRGLPKAVCMNGTEAAQLSTKSRAEGRAPNPARKACSASSKIRRLSACKQQ [L105M] | 1.18 ± 0.74
9 | MEVVDPQQLGMFTEGELMSVGMDTFIHRIDSTEVIYQPRRKRAKLIGKYLMGDLLGEGSYGKVKEVLDSETLCRRAVKILKKKKLRRIPNGEANVKKEIQLLRRLRHKNVIQLVDVLYNEEKQKMYMVMEYCVCGMQEMLDSVPEKRFPVCQAHGYFCQLIDGLEYLHSQGIVHKDIKPGNLLLTTGGTLKISDLGVAEALHPFAADDTCRTSQGSPAFQPPEIANGLDTFSGFKVDIWSAGVTLYNITTGLYPFEGDNIYKLFENIGKGSYAIPGDCGPPLSDLLKGMLEYEPAKRFSIRQIRQHSWFRKKHPPAEAPVNIPPSPDTKDRWRSMTVVPYLEDLHGADEDEDLFDIEDDIIYTQDFTVPGQVPEEEASHNGQRRGLPKAVCMNGTEAAQLSTKSRAEGRAPNPARKACSASSKIRRLSACKQQ [P321N] | 1.03 ± 0.51
10 | MEVVDPQQLGMFTEGELMSVGMDTFIHRIDSTEVIYQPRRKRAKLIGKYLMGDLLGEGSYGKVKEVLDSETLCRRAVKILKKKKLRRIPNGEANVKKEIQLLRRLRYKNVIQLVDVLYNEEKQKMYMVMEYCVCGMQEMLDSVPEKRFPVCQAHGYFCQLIDGLEYLHSQGIVHKDIKPGNLLLTTGGTLKISDLGVAEALHPFAADDTCRTSQGSPAFQPPEIANGLDTFSGFKVDIWSAGVTLYNITTGLYPFEGDNIYKLFENIGKGSYAIPGDCGPPLSDLLKGMLEYEPAKRFSIRQIRQHSWFRKKHPPAEAPVPIPPSPDTKDRWRSMTVVPYLEDLHGADEDEDLFDIEDDIIYTQDFTVPGQVPEEEASHNGQRRGLPKAVCMNGTEAAQLSTKSRAEGRAPNPARKACSASSKIRRLSACKQQ [H107Y] | 0.262 ± 0.079
11 | MEVVDPQQLGMFTEGELMSVGMDTFIHRIDSTEVIYQPRRKRAKLIGKYLMGDLLGEGSYGKVKEVLDSETLCRRAVKILKKKKLRRIPNGEANVKKEIQLLRRLRHKNVIQLVDVLYNEEKQKMYMVMEYCVCGMQEMLDSVPEKRFPVCQAHGYFCQLIDGLEYLHSQGIVHKDIKPGNLLLTTGGTLKISDLGVAEALHPFAADDTCRNSQGSPAFQPPEIANGLDTFSGFKVDIWSAGVTLYNITTGLYPFEGDNIYKLFENIGKGSYAIPGDCGPPLSDLLKGMLEYEPAKRFSIRQIRQHSWFRKKHPPAEAPVPIPPSPDTKDRWRSMTVVPYLEDLHGADEDEDLFDIEDDIIYTQDFTVPGQVPEEEASHNGQRRGLPKAVCMNGTEAAQLSTKSRAEGRAPNPARKACSASSKIRRLSACKQQ [T212N] | 0.481 ± 0.46
12 | MEVVDPQQLGMFTEGELMSVGMDTFIHRIDSTEVIYQPRRKRAKLIGKYLMGDLLGEGSYGKVKEVLDSETLCRRAVKILKKKKLRRIPNGEANVKKEIQLLRRLRHKNVIQLVDVLYNEEKQKMYMVMEYCVCGMQEMLDSVPEKRFPVCQAHGYFCQLIDGLEYLHSQGIVHKDIKPGNLLLTTGGTLKISDLGVAEALHPFAADDTCRTSQGSPAFQPPEIANGLDTFSGFKVDIWSAGVTLYNITTGLYPFEGDNIYKLFENIGKGSYAIPGDCGPPLSDLLKGMLEYEPAKRFSIRQIRQHSWFRKKHPPAEAPVPIPPSPDTKDRWRSMTVVPYLEDLHGADEDEDLFDIEDDINYTQDFTVPGQVPEEEASHNGQRRGLPKAVCMNGTEAAQLSTKSRAEGRAPNPARKACSASSKIRRLSACKQQ [I361N] | 1.27 ± 0.24
13 | MEVVDPQQLGMFWEGELMSVGMDTFIHRIDSTEVIYQPRRKRAKLIGKYLMGDLLGEGSYGKVKEVLDSETLCRRAVKILKKKKLRRIPNGEANVKKEIQLLRRLRHKNVIQLVDVLYNEEKQKMYMVMEYCVCGMQEMLDSVPEKRFPVCQAHGYFCQLIDGLEYLHSQGIVHKDIKPGNLLLTTGGTLKISDLGVAEALHPFAADDTCRTSQGSPAFQPPEIANGLDTFSGFKVDIWSAGVTLYNITTGLYPFEGDNIYKLFENIGKGSYAIPGDCGPPLSDLLKGMLEYEPAKRFSIRQIRQHSWFRKKHPPAEAPVPIPPSPDTKDRWRSMTVVPYLEDLHGADEDEDLFDIEDDIIYTQDFTVPGQVPEEEASHNGQRRGLPKAVCMNGTEAAQLSTKSRAEGRAPNPARKACSASSKIRRLSACKQQ [T13W] | 0.14 ± 0.079
14 | MEVVDPQQLGMFTEGELMSVGMDTFIHRIDSTEVIYQPRRKRAKLIGKYLMGDLLGEGSYGKVKEVLDSETLCRRAVKILKKKKLRRIPNGEANVKKEIQLLRRLRHKNVIQLVDVLYNEEKQKMYMVMEYCVCGMQEMLDSVPEKRFPVCQAHGYFCQLIDGLEYLHSQGIVHKDIKPGNLLLTTGGTLKISDLGVAEALHPFAADDTCRTSQGSPAFQPPEIANGLDTFSGFKVDIWSAGVTLYNITTGLYPFEGDNIYKLFENIGKGSYAIPGDCGPPLSDLLKGMLEYEPAKRFSIRQIRQHSWFRKKHPPAEAPVPIPPSPDTKDRWRSMTVVPYLTDLHGADEDEDLFDIEDDIIYTQDFTVPGQVPEEEASHNGQRRGLPKAVCMNGTEAAQLSTKSRAEGRAPNPARKACSASSKIRRLSACKQQ [E342T] | 1.58 ± 0.15
